According to patent US20190170753A1 (ICAHN SCHOOL OF MEDICINE AT MOUNT SINAI, published 2019):
Where no end group is shown, it is not given here.

Experiments:
HCV core peptide 54 = molecular target: T1, HCV core peptide 54 (hepatitis C virus, HELM PEPTIDE1{[O=C1N[C@H]2[C@H](CS[C@H]2CCCCC(=O)[*:2])N1].S.G.S.G.W.G.P.T.D.P.R.R.R.S.R.N.L.G.K.[am]}$$$$V2.0; SMILES …); experiment: peptide EIA, 2 ug/mL IgG (summary table)
T1 peptide: SGSGWGPTDPRRRSRNLGK
Experimental: The coated plates were kept dry in a sealed foil pouch and stored at <10 degrees C. until ready for use. A peptide coated plate for each test antibody was blocked using 3% BSA in PBS with 0.5% Tween 20. The blocked plates were washed with distilled water and a 2 ug/mL solution of purified IgG from each test sample diluted in BSA block solution was added to each peptide coated well of the blocked plate and allowed to incubate at room temperature for at least one hour. Following incubation the plates were washed with distilled water. A 200 ng/mL solution of peroxidase labeled F(ab′)2 fragment goat anti-mouse IgG Fc fragment specific (Jackson Immunoresearch) in BSA block solution was added to all wells and incubated at room temperature for 30 minutes. The plates were washed with distilled water and o-phenylenediamine substrate was used as the chromagen to generate signal. Plates were read at 492 nm and the results were analyzed.

[1] = molecular target: T2, 92-133 biotin labeled HCV core peptide (hepatitis C virus, UniProt Q9WMX2 92-133, chain 1: biotin label (bt-pep). Its position and any spacer are not visible in the passages shown.); experiment: capture EIA; Ab 15.6 ng/mL; bt-peptide 500 ng/mL (summary of Table 7)
T2 construct: Only the label 92-133 is printed
T2 peptide: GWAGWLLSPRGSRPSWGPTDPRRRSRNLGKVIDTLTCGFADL
Experimental: (§1) Assay wells were coated with sheep anti-mouse IgG Fc specific antibody and incubated overnight. The coating solution was then removed; the wells blocked using BSA/tween in PBS and then washed with dH2O. […] Next, biotin labeled peptides (diluted to 500 ng/mL in block) were added, the plates incubated for 10 minutes while shaking at 700 rpm and then washed. Peroxidase conjugated streptavidin (diluted to 200 ng/mL in block) was then added to all assay wells, incubated for 20 minutes while shaking at 700 rpm and then washed. Finally, color was developed using OPD and signal quenched using 1N H₂SO₄. Signal was read at 492 nm.

[2] = molecular target: T3, Mut1T110N biotin labeled HCV core peptide (hepatitis C virus, biotin labeled (position not given)); experiment: as above
T3 peptide: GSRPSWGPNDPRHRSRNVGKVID

[3] = molecular target: T4, Mut6T110S biotin labeled HCV core peptide (hepatitis C virus, biotin labeled (position not given)); experiment: as above
[4] = molecular target: T5, WT1STHV biotin labeled HCV core peptide (hepatitis C virus, biotin labeled (position not given)); experiment: as above
T5 peptide: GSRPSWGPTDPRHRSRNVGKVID

[5] = molecular target: T6, C113T109N biotin labeled HCV core peptide (hepatitis C virus, also: biotin labeled, position not given here); experiment: as above
T6 construct: also called C113T110N
T6 peptide: RGSRPSWGPND

[6] = molecular target: T7, C113WT biotin labeled HCV core peptide (hepatitis C virus, also: biotin labeled, position not given here); experiment: as above
T7 peptide: RGSRPSWGPTD

[7] = molecular target: T2, 92-133 biotin labeled HCV core peptide; experiment: capture EIA; Ab 2000 ng/mL; bt-peptide 500 ng/mL
Experimental: as §1

[8] = molecular target: T3, Mut1T110N biotin labeled HCV core …; experiment: capture EIA; Ab 2000 ng/mL; bt-peptide 500 ng/mL
Experimental: as §1

[9] = molecular target: T4, Mut6T110S biotin labeled HCV core …; experiment: capture EIA; Ab 2000 ng/mL; bt-peptide 500 ng/mL
Experimental: as §1

[10] = molecular target: T5, WT1STHV biotin labeled HCV core peptide; experiment: capture EIA; Ab 2000 ng/mL; bt-peptide 500 ng/mL
Experimental: as §1

[11] = molecular target: T6, C113T109N biotin labeled HCV core …; experiment: capture EIA; Ab 2000 ng/mL; bt-peptide 500 ng/mL
Experimental: as §1

[12] = molecular target: T7, C113WT biotin labeled HCV core peptide; experiment: capture EIA; Ab 2000 ng/mL; bt-peptide 500 ng/mL
Experimental: as §1

[13] = molecular target: T2, 92-133 biotin labeled HCV core peptide; experiment: capture EIA; Ab 62.5 ng/mL; bt-peptide 500 ng/mL
Experimental: as §1

[14] = molecular target: T3, Mut1T110N biotin labeled HCV core …; experiment: capture EIA; Ab 62.5 ng/mL; bt-peptide 500 ng/mL
Experimental: as §1

[15] = molecular target: T4, Mut6T110S biotin labeled HCV core …; experiment: capture EIA; Ab 62.5 ng/mL; bt-peptide 500 ng/mL
Experimental: as §1

[16] = molecular target: T5, WT1STHV biotin labeled HCV core peptide; experiment: capture EIA; Ab 62.5 ng/mL; bt-peptide 500 ng/mL
Experimental: as §1

[17] = molecular target: T6, C113T109N biotin labeled HCV core …; experiment: capture EIA; Ab 62.5 ng/mL; bt-peptide 500 ng/mL
Experimental: as §1

[18] = molecular target: T7, C113WT biotin labeled HCV core peptide; experiment: capture EIA; Ab 62.5 ng/mL; bt-peptide 500 ng/mL
Experimental: as §1

[19] = molecular target: T2, 92-133 biotin labeled HCV core peptide; experiment: capture EIA; Ab 1.953 ng/mL; bt-peptide 500 ng/mL
Experimental: as §1

[20] = molecular target: T3, Mut1T110N biotin labeled HCV core …; experiment: capture EIA; Ab 1.953 ng/mL; bt-peptide 500 ng/mL
Experimental: as §1

[21] = molecular target: T4, Mut6T110S biotin labeled HCV core …; experiment: capture EIA; Ab 1.953 ng/mL; bt-peptide 500 ng/mL
Experimental: as §1

[22] = molecular target: T5, WT1STHV biotin labeled HCV core peptide; experiment: capture EIA; Ab 1.953 ng/mL; bt-peptide 500 ng/mL
Experimental: as §1

[23] = molecular target: T6, C113T109N biotin labeled HCV core …; experiment: capture EIA; Ab 1.953 ng/mL; bt-peptide 500 ng/mL
Experimental: as §1

[24] = molecular target: T7, C113WT biotin labeled HCV core peptide; experiment: capture EIA; Ab 1.953 ng/mL; bt-peptide 500 ng/mL
Experimental: as §1

B1: Neo4 mouse monoclonal antibody (antibody, V domains shown)
VH: QIQLKESGPAVIKPSQSLSLTCIVSGFSITSSVYCWQWIRQPPGKGLEWMGRICYDGSVDYSPSITSRGTISRDTSLNKVFFQLSSVTNEDTAMYYCSRENHIDYYDTTYPSFDVWGAGTTVTVSS
VL: DIVLTQSPASLIVSLGQRATISCRASKSVNEYGYTYMHWYQQKPGLPPKLLIYLASNLDSGVPARFSGSGSGTDFTLNIHPVEEEDAATYYCQHSRELPYTFGGGTKLEIKR
notes: Mouse hybridoma antibody, isotype IgG1, purified with Protein G; also called HCV Neo4
OD (A492 nm) (HCV core peptide 54): 1.01 OD
signal at 492 nm [1]: 0.806 A492
signal at 492 nm [2]: 0.0771 A492
signal at 492 nm [3]: 0.25 A492
signal at 492 nm [4]: 1.42 A492
signal at 492 nm [5]: 0.0736 A492
signal at 492 nm [6]: 0.0697 A492
signal at 492 nm [7]: 1.31 A492
signal at 492 nm [8]: 0.0882 A492
signal at 492 nm [9]: 1.17 A492
signal at 492 nm [10]: 1.9 A492
signal at 492 nm [11]: 0.059 A492
signal at 492 nm [12]: 0.0766 A492
signal at 492 nm [13]: 1.47 A492
signal at 492 nm [14]: 0.139 A492
signal at 492 nm [15]: 1.11 A492
signal at 492 nm [16]: 1.85 A492
signal at 492 nm [17]: 0.111 A492
signal at 492 nm [18]: 0.0626 A492
signal at 492 nm [19]: 0.129 A492
signal at 492 nm [20]: 0.0728 A492
signal at 492 nm [21]: 0.0717 A492
signal at 492 nm [22]: 0.409 A492
signal at 492 nm [23]: 0.0853 A492
signal at 492 nm [24]: 0.0765 A492
